Here are results for 1 molecule from patent publication US20100305026A1.

In the assay the target is CD44v6 (endogenous human CD44 variant isoforms containing exon v6) (human), P16070. The assay can be described thus: cell-based or functional assay.

B1: human CD44v6 14-mer peptide having SEQ ID NO: 2 (peptide)
peptide: KEQWFGNRWHEGYR
In turn, B1 yielded an entry of InlB-coated latex beads into HeLa cells (block of entry) of 100%.
